The source of these data is paper PMC5912162 (Bioconjugate chemistry, 2010).

The subject of one data set is KRAS2 G12D 20-mer RNA. Particulars: cited from earlier work.
A short description of data set [1]: in vivo. Conditions: mouse, iv, 2 nmol, total radioactivity, Tissue distribution.
The conditions of data set [2]: mouse, in vivo.
The subject of data set [3] is human CAPAN2 (G12 V) pancreatic cancer xenografts. Particulars: mouse, in vivo.
Data set [4] is described as follows: in vivo. Particulars: mouse, iv, total radioactivity.

Usually tissue uptake stands for the share of the injected amount in each gram of the tissue.

Take `Cc1cn(CC(=O)N(CCNC(=O)CN(CCNC(=O)CN(CCNC(=O)CN(CCNC(=O)CN(CCNC(=O)CN(CCNC(=O)CN(CCNC(=O)CN(CCNC(=O)CN(CCNC(=O)CN(CCNC(=O)COCCOCCNC(=O)COCCOCCNC(=O)[C@H](CNC(=O)COCCOCCNC(=O)CN2CCN(CC(=O)O)CCN(CC(=O)O)CCN(CC(=O)O)CC2)NC(=O)COCCOCCNC(=O)CN2CCN(CC(=O)O)CCN(CC(=O)O)CCN(CC(=O)O)CC2)C(=O)Cn2cnc3c(=O)[nH]c(N)nc32)C(=O)Cn2ccc(N)nc2=O)C(=O)Cn2ccc(N)nc2=O)C(=O)Cn2cnc3c(N)ncnc32)C(=O)Cn2cc(C)c(=O)[nH]c2=O)C(=O)Cn2ccc(N)nc2=O)C(=O)Cn2cnc3c(N)ncnc32)C(=O)Cn2cnc3c(=O)[nH]c(N)nc32)C(=O)Cn2ccc(N)nc2=O)CC(=O)NCCN(CC(=O)NCCN(CC(=O)NCCOCCOCC(=O)N[C@@H]2CSSC[C@H](C(N)=O)NC(=O)[C@@H](CCCCN)NC(=O)[C@@H](CO)NC2=O)C(=O)Cn2ccc(N)nc2=O)C(=O)Cn2ccc(N)nc2=O)c(=O)[nH]c1=O` [WT5195, (DOTA-AEEA)2-PDAP^1-AEEA2-GCCAtCAGCTCC-AEEA-D(Cys-Ser-Lys-Cys)]: the Tm in the data set on KRAS2 G12D 20-mer RNA is 78.7 ± 0.6 °C. For the same molecule, the tissue uptake at 24 h in “in vivo [1]” (blood) is 0.02 ± 0.01 %ID/g; in “in vivo [1]” (heart) it was 0.028 ± 0.008 %ID/g; in “in vivo [1]” (intestine) it was 0.048 ± 0.007 %ID/g; in “in vivo [1]” (kidneys) it was 18.4 ± 1.89 %ID/g; in “in vivo [1]” (liver), 0.147 ± 0.015 %ID/g; in the data set “in vivo [1]” (lungs), 0.217 ± 0.257 %ID/g. For the same molecule, the figures for the tissue uptake at 24 h in “in vivo [1]” (muscle), in the data set “in vivo [1]” (spleen) and in “in vivo [1]” (tumor) were 0.038 ± 0.007 %ID/g, 0.079 ± 0.006 %ID/g and 0.135 ± 0.034 %ID/g, respectively. For the same molecule, the “Breakdown fragments in urine” value in data set [2] was “not detected”. In addition, the “Free 111In (void volume peak) in urine, share of radioactivity” value in data set [2] was “less than 1%”. For the same molecule, the “Intact probe peak (eluting at 9 min) in urine, share of radioactivity” value in data set [2] is recorded as “more than 99%”.

Regarding `Cc1cn(CC(=O)N(CCNC(=O)CN(CCNC(=O)CN(CCNC(=O)CN(CCNC(=O)CN(CCNC(=O)CN(CCNC(=O)CN(CCNC(=O)CN(CCNC(=O)CN(CCNC(=O)CN(CCNC(=O)COCCOCCNC(=O)COCCOCCNC(=O)[C@H](CNC(=O)COCCOCCNC(=O)CN2CCN(CC(=O)O)CCN(CC(=O)O)CCN(CC(=O)O)CC2)NC(=O)COCCOCCNC(=O)CN2CCN(CC(=O)O)CCN(CC(=O)O)CCN(CC(=O)O)CC2)C(=O)Cn2cnc3c(=O)[nH]c(N)nc32)C(=O)Cn2ccc(N)nc2=O)C(=O)Cn2ccc(N)nc2=O)C(=O)Cn2cnc3c(N)ncnc32)C(=O)Cn2cnc3c(N)ncnc32)C(=O)Cn2ccc(N)nc2=O)C(=O)Cn2cnc3c(N)ncnc32)C(=O)Cn2cnc3c(=O)[nH]c(N)nc32)C(=O)Cn2ccc(N)nc2=O)CC(=O)NCCN(CC(=O)NCCN(CC(=O)NCCOCCOCC(=O)N[C@@H]2CSSC[C@H](C(N)=O)NC(=O)[C@@H](CCCCN)NC(=O)[C@@H](CO)NC2=O)C(=O)Cn2ccc(N)nc2=O)C(=O)Cn2ccc(N)nc2=O)c(=O)[nH]c1=O` [WT5204, (DOTA-AEEA)2-PDAP^1-AEEA2-GCCAaCAGCTCC-AEEA-D(Cys-Ser-Lys-Cys)], the Tm with KRAS2 G12D 20-mer RNA is 68.0 ± 1.2 °C. Further, the tissue uptake at 24 h worked out at 0.049 ± 0.005 %ID/g in “in vivo [1]” (blood); 0.042 ± 0.004 %ID/g in “in vivo [1]” (heart); 0.079 ± 0.008 %ID/g in “in vivo [1]” (intestine); 19 ± 2.34 %ID/g in “in vivo [1]” (kidneys); 0.248 ± 0.033 %ID/g in the data set “in vivo [1]” (liver); 0.093 ± 0.009 %ID/g in “in vivo [1]” (lungs). The figures for the tissue uptake at 24 h in “in vivo [1]” (muscle), in “in vivo [1]” (spleen) and in “in vivo [1]” (tumor) were 0.046 ± 0.006 %ID/g, 0.105 ± 0.012 %ID/g and 0.144 ± 0.014 %ID/g, respectively.

Take `Cc1cn(CC(=O)N(CCNC(=O)CN(CCNC(=O)CN(CCNC(=O)CN(CCNC(=O)CN(CCNC(=O)CN(CCNC(=O)CN(CCNC(=O)CN(CCNC(=O)CN(CCNC(=O)CN(CCNC(=O)COCCOCCNC(=O)COCCOCCNC(=O)[C@H](CNC(=O)[C@H](CNC(=O)[C@H](CNC(=O)COCCOCCNC(=O)CN2CCN(CC(=O)O)CCN(CC(=O)O)CCN(CC(=O)O)CC2)NC(=O)COCCOCCNC(=O)CN2CCN(CC(=O)O)CCN(CC(=O)O)CCN(CC(=O)O)CC2)NC(=O)[C@H](CNC(=O)COCCOCCNC(=O)CN2CCN(CC(=O)O)CCN(CC(=O)O)CCN(CC(=O)O)CC2)NC(=O)COCCOCCNC(=O)CN2CCN(CC(=O)O)CCN(CC(=O)O)CCN(CC(=O)O)CC2)NC(=O)[C@H](CNC(=O)[C@H](CNC(=O)COCCOCCNC(=O)CN2CCN(CC(=O)O)CCN(CC(=O)O)CCN(CC(=O)O)CC2)NC(=O)COCCOCCNC(=O)CN2CCN(CC(=O)O)CCN(CC(=O)O)CCN(CC(=O)O)CC2)NC(=O)[C@H](CNC(=O)COCCOCCNC(=O)CN2CCN(CC(=O)O)CCN(CC(=O)O)CCN(CC(=O)O)CC2)NC(=O)COCCOCCNC(=O)CN2CCN(CC(=O)O)CCN(CC(=O)O)CCN(CC(=O)O)CC2)C(=O)Cn2cnc3c(=O)[nH]c(N)nc32)C(=O)Cn2ccc(N)nc2=O)C(=O)Cn2ccc(N)nc2=O)C(=O)Cn2cnc3c(N)ncnc32)C(=O)Cn2cc(C)c(=O)[nH]c2=O)C(=O)Cn2ccc(N)nc2=O)C(=O)Cn2cnc3c(N)ncnc32)C(=O)Cn2cnc3c(=O)[nH]c(N)nc32)C(=O)Cn2ccc(N)nc2=O)CC(=O)NCCN(CC(=O)NCCN(CC(=O)NCCOCCOCC(=O)N[C@@H]2CSSC[C@H](C(N)=O)NC(=O)[C@@H](CCCCN)NC(=O)[C@@H](CO)NC2=O)C(=O)Cn2ccc(N)nc2=O)C(=O)Cn2ccc(N)nc2=O)c(=O)[nH]c1=O` [WT8900, (DOTA-AEEA)8-PDAP^3-AEEA2-GCCAtCAGCTCC-AEEA-D(Cys-Ser-Lys-Cys)]: the Tm with KRAS2 G12D 20-mer RNA is 75.9 ± 0.5 °C. The tissue uptake at 24 h in “in vivo [1]” (blood) was 0.018 ± 0.001 %ID/g; in “in vivo [1]” (heart), 0.035 ± 0.005 %ID/g; in “in vivo [1]” (intestine) it was 0.048 ± 0.004 %ID/g; in the data set “in vivo [1]” (kidneys), 29.6 ± 9.21 %ID/g; in “in vivo [1]” (liver) it was 0.152 ± 0.012 %ID/g; in the data set “in vivo [1]” (lungs) it was 0.096 ± 0.021 %ID/g. The tissue uptake at 24 h came out at 0.04 ± 0.01 %ID/g in “in vivo [1]” (muscle), 0.075 ± 0.005 %ID/g in “in vivo [1]” (spleen) and 0.143 ± 0.011 %ID/g in the data set “in vivo [1]” (tumor).

In the case of `Cc1cn(CC(=O)N(CCNC(=O)CN(CCNC(=O)CN(CCNC(=O)CN(CCNC(=O)CN(CCNC(=O)CN(CCNC(=O)CN(CCNC(=O)CN(CCNC(=O)CN(CCNC(=O)CN(CCNC(=O)COCCOCCNC(=O)COCCOCCNC(=O)[C@H](CNC(=O)[C@H](CNC(=O)[C@H](CNC(=O)COCCOCCNC(=O)CN2CCN(CC(=O)O)CCN(CC(=O)O)CCN(CC(=O)O)CC2)NC(=O)COCCOCCNC(=O)CN2CCN(CC(=O)O)CCN(CC(=O)O)CCN(CC(=O)O)CC2)NC(=O)[C@H](CNC(=O)COCCOCCNC(=O)CN2CCN(CC(=O)O)CCN(CC(=O)O)CCN(CC(=O)O)CC2)NC(=O)COCCOCCNC(=O)CN2CCN(CC(=O)O)CCN(CC(=O)O)CCN(CC(=O)O)CC2)NC(=O)[C@H](CNC(=O)[C@H](CNC(=O)COCCOCCNC(=O)CN2CCN(CC(=O)O)CCN(CC(=O)O)CCN(CC(=O)O)CC2)NC(=O)COCCOCCNC(=O)CN2CCN(CC(=O)O)CCN(CC(=O)O)CCN(CC(=O)O)CC2)NC(=O)[C@H](CNC(=O)COCCOCCNC(=O)CN2CCN(CC(=O)O)CCN(CC(=O)O)CCN(CC(=O)O)CC2)NC(=O)COCCOCCNC(=O)CN2CCN(CC(=O)O)CCN(CC(=O)O)CCN(CC(=O)O)CC2)C(=O)Cn2cnc3c(=O)[nH]c(N)nc32)C(=O)Cn2ccc(N)nc2=O)C(=O)Cn2ccc(N)nc2=O)C(=O)Cn2cnc3c(N)ncnc32)C(=O)Cn2cnc3c(N)ncnc32)C(=O)Cn2ccc(N)nc2=O)C(=O)Cn2cnc3c(N)ncnc32)C(=O)Cn2cnc3c(=O)[nH]c(N)nc32)C(=O)Cn2ccc(N)nc2=O)CC(=O)NCCN(CC(=O)NCCN(CC(=O)NCCOCCOCC(=O)N[C@@H]2CSSC[C@H](C(N)=O)NC(=O)[C@@H](CCCCN)NC(=O)[C@@H](CO)NC2=O)C(=O)Cn2ccc(N)nc2=O)C(=O)Cn2ccc(N)nc2=O)c(=O)[nH]c1=O` [WT8910, (DOTA-AEEA)8-PDAP^3-AEEA2-GCCAaCAGCTCC-AEEA-D(Cys-Ser-Lys-Cys)], the Tm in the data set with KRAS2 G12D 20-mer RNA was 66.9 ± 0.5 °C. Besides, the tissue uptake at 24 h in “in vivo [1]” (blood) worked out at 0.012 ± 0.002 %ID/g; in “in vivo [1]” (heart) it was 0.037 ± 0.006 %ID/g; in “in vivo [1]” (intestine), 0.043 ± 0.006 %ID/g; in the data set “in vivo [1]” (kidneys), 13.9 ± 2.11 %ID/g; in the data set “in vivo [1]” (liver), 0.104 ± 0.015 %ID/g; in the data set “in vivo [1]” (lungs), 0.207 ± 0.031 %ID/g. The values for the tissue uptake at 24 h in “in vivo [1]” (muscle), in the data set “in vivo [1]” (spleen) and in “in vivo [1]” (tumor) were 0.03 ± 0.004 %ID/g, 0.056 ± 0.009 %ID/g and 0.113 ± 0.014 %ID/g, respectively. Moreover, in data set [3], the “Decrease of K/T ratio by added Gdn probes” value is given as “more than 5 fold”. Further, the “Decrease of kidney accumulation by added Gdn probes” value in data set [3] came out at 2 fold. In addition, the tissue to tissue ratio at 24 h in “in vivo [4]” is 6.5 ± 1.

On to “(Gd-DOTA-AEEA)2-PDAP^1-AEEA2-GCCAaCAGCTCC-AEEA-D(Cys-Ser-Lys-Cys) (disulfide) [WT5512]”, for which the Tm with KRAS2 G12D 20-mer RNA is 68.0 ± 1.0 °C.

In the case of “(Gd-DOTA-AEEA)8-PDAP^3-AEEA2-GCCAaCAGCTCC-AEEA-D(Cys-Ser-Lys-Cys) (disulfide) [WT10144]”, in the data set on KRAS2 G12D 20-mer RNA, the Tm was 66.8 ± 0.9 °C.
